Measured values taken from patent US20120196307.

T1: synaptotagmin-1, intact 65 kDa protein (rat), P21707
T1 chain: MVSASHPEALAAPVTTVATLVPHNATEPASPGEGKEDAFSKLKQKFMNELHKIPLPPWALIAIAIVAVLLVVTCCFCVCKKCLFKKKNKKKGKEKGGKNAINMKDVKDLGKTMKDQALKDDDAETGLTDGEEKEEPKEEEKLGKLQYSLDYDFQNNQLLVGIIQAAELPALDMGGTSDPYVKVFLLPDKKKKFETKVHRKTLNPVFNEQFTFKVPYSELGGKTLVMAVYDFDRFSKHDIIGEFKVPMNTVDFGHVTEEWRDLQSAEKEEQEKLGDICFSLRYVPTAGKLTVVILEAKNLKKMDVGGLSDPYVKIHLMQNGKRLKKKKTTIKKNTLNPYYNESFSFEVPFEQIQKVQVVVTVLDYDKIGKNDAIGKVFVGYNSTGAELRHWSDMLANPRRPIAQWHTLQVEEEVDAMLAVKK

B1: rat recombinant calpain-2 (Calbiochem) (protein)
chain: MAGIAMKLAKDREAAEGLGSHERAIKYLNQDYETLRNECLEAGALFQDPSFPALPSSLGFKELGPYSSKTRGIEWKRPTEICADPQFIIGGATRTDICQGALGDCWLLAAIASLTLNEEILARVVPLDQSFQENYAGIFHFQFWQYGEWVEVVVDDRLPTKDGELLFVHSAEGSEFWSALLEKAYAKINGCYEALSGGATTEGFEDFTGGIAEWYELRKPPPNLFKIIQKALEKGSLLGCSIDITSAADSEAVTYQKLVKGHAYSVTGAEEVESSGSLQKLIRIRNPWGQVEWTGKWNDNCPSWNTVDPEVRANLTERQEDGEFWMSFSDFLRHYSRLEICNLTPDTLTCDSYKKWKLTKMDGNWRRGSTAGGCRNYPNTFWMNPQYLIKLEEEDEDDEDGERGCTFLVGLIQKHRRRQRKMGEDMHTIGFGIYEVPEELTGQTNIHLSKNFFLTTRARERSDTFINLREVLNRFKLPPGEYVLVPSTFEPHKNGDFCIRVFSEKKADYQTVDDEIEANIEEIEANEEDIGDGFRRLFAQLAGEDAEISAFELQTILRRVLAKREDIKSDGFSIETCKIMVDMLDEDGSGKLGLKEFYILWTKIQKYQKIYREIDVDRSGTMNSYEMRKALEEAGFKLPCQLHQVIVARFADDELIIDFDNFVRCLVRLEILFKIFKQLDPENTGTIQLDLISWLSFSVL
B2: human calpain-2 (Calbiochem, Cat#208715) (protein)
chain: AGIAAKLAKDREAAEGLGSHDRAIKYLNQDYEALRNECLEAGTLFQDPSFPAIPSALGFKELGPYSSKTRGIEWKRPTEICADPQFIIGGATRTDICQGALGDCWLLAAIASLTLNEEILARVVPLNQSFQENYAGIFHFQFWQYGEWVEVVVDDRLPTKDGELLFVHSAEGSEFWSALLEKAYAKINGCYEALSGGATTEGFEDFTGGIAEWYELKKPPPNLFKIIQKALQKGSLLGCSIDITSAADSEAITFQKLVKGHAYSVTGAEEVESNGSLQKLIRIRNPWGEVEWTGRWNDNCPSWNTIDPEERERLTRRHEDGEFWMSFSDFLRHYSRLEICNLTPDTLTSDTYKKWKLTKMDGNWRRGSTAGGCRNYPNTFWMNPQYLIKLEEEDEDEEDGESGCTFLVGLIQKHRRRQRKMGEDMHTIGFGIYEVPEELSGQTNIHLSKNFFLTNRARERSDTFINLREVLNRFKLPPGEYILVPSTFEPNKDGDFCIRVFSEKKADYQAVDDEIEANLEEFDISEDDIDDGFRRLFAQLAGEDAEISAFELQTILRRVLAKRQDIKSDGFSIETCKIMVDMLDSDGSGKLGLKEFYILWTKIQKYQKIYREIDVDRSGTMNSYEMRKALEEAGFKMPCQLHQVIVARFADDQLIIDFDNFVRCLVRLETLFKIFKQLDPENTGTIELDLISWLCFSVL
B3: human erythrocyte calpain-1 (protein)
chain: SEEIITPVYCTGVSAQVQKQRARELGLGRHENAIKYLGQDYEQLRVRCLQSGTLFRDEAFPPVPQSLGYKDLGPNSSKTYGIKWKRPTELLSNPQFIVDGATRTDICQGALGDCWLLAAIASLTLNDTLLHRVVPHGQSFQNGYAGIFHFQLWQFGEWVDVVVDDLLPIKDGKLVFVHSAEGNEFWSALLEKAYAKVNGSYEALSGGSTSEGFEDFTGGVTEWYELRKAPSDLYQIILKALERGSLLGCSIDISSVLDMEAITFKKLVKGHAYSVTGAKQVNYRGQVVSLIRMRNPWGEVEWTGAWSDSSSEWNNVDPYERDQLRVKMEDGEFWMSFRDFMREFTRLEICNLTPDALKSRTIRKWNTTLYEGTWRRGSTAGGCRNYPATFWVNPQFKIRLDETDDPDDYGDRESGCSFVLALMQKHRRRERRFGRDMETIGFAVYEVPPELVGQPAVHLKRDFFLANASRARSEQFINLREVSTRFRLPPGEYVVVPSTFEPNKEGDFVLRFFSEKSAGTVELDDQIQANLPDEQVLSEEEIDENFKALFRQLAGEDMEISVKELRTILNRIISKHKDLRTKGFSLESCRSMVNLMDRDGNGKLGLVEFNILWNRIRNYLSIFRKFDLDKSGSMSAYEMRMAIESAGFKLNKKLYELIITRYSEPDLAVDFDNFVCCLVRLETMFRFFKTLDTDLDGVVTFDLFKWLQLTMFA
B4: recombinant human caspase-3 (Chemicon) (protein)
chain: SGISLDNSYKMDYPEMGLCIIINNKNFHKSTGMTSRSGTDVDAANLRETFRNLKYEVRNKNDLTREEIVELMRDVSKEDHSKRSSFVCVLLSHGEEGIIFGTNGPVDLKKITNFFRGDRCRSLTGKPKLFIIQACRGTELDCGIETDSGVDDDMACHKIPVEADFLYAYSTAPGYYSWRNSKDGSWFIQSLCAMLKQYADKLEFMHILTRVNRKVATEFESFSFDATFHAKKQIPCIVSMLTKELYFYH

Columns and labels:
[1] = target: CRMP-2 C-terminal 53-mer (500-552) synthetic peptide, Q16555
[2] = target: T1, synaptotagmin-1, intact 65 kDa protein …
[3] = target: collapsin response mediator protein-2, intact (rat), P47942

| Protein | in vitro digestion of the synthetic peptide, Coomassie gel and N-terminal microsequencing [1] | in vitro protease digestion of lysate, Western blot [2] | in vitro protease digestion of naive brain lysate, Western blot [3] |
| --- | --- | --- | --- |
| B1 | Purified CRMP-2 C-terminal 53-mer (500-552) peptide was synthesized and digested by rat calpain-2. | – | – |
| B2 | – | Syt1-blot also showed a calpain-concentration-dependent reduction of intact Syt1. Calpain treatment also produced a BDP identical to the 33 Syt1-fragment produced following TBI. | – |
| B3 | – | Digestion with calpain-1 showed identical results (data not shown). | – |
| B4 | – | Syt1 was resistant to caspase-3 in the same samples | caspase-3 treatment did not produce the 55 kDa BDP |
